In the RNAGym collection of RNA variant scans (doi:10.1073/pnas.2313332121):
This sample holds only a part of the variants without activity.

B1: TPR 5TU (parent)
chain: GGAUCUUCUCGAUCUAACAAAAAAGACAAAUCUGCCACAAAGCUUGAGAGCAUCUUCGGAUGCAGAGGCGGCAGCCUUCGGUGGCGCGAUAGCGCCAACGUUCUCAACUAUGACACGCAAAACGCGUGCUCCGUUGAAUGGAGUUUAUCAUG

Variants of: B1
Assay: polymerase ribozyme fitness, log enrichment relative to wild type (log ratio); higher = more active; in vitro selection for triplet polymerase activity
How it was run: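 After PCR construction and transcription, each subunit's mutant library from a heterodimeric triplet polymerase ribozyme was annealed with a biotinylated primer, the partner subunit and triplets. Incubation was frozen, at −7 °C, and extended constructs were gel-excised, bound to streptavidin beads and amplified by RT-PCR, in one selection round done in triplicate. Fitness is the logarithm of a genotype's enrichment divided by that of the wild type, from inverse-variance-weighted replicate averages of Illumina-sequenced inputs and outputs. The base of the logarithm is 2, and genotypes needed ≥10 input reads and ≥1 read per output.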

Variant | polymerase ribozyme fitness (log ratio)
A16U A30C A47G G58A U111A | ≤ -4.2
A17G A39C A40C A73G G94C U134G | ≤ -4.2
A16U A22U G117A C132A U151G | ≤ -4.2
A16U A41G A47C C76G G88C G94C A110C U134A G140A G141C A147C | ≤ -4.2
A17G A29C A107U U135G | ≤ -4.2
A16G C43A C57G G59U G70U G88U C99U A107G | ≤ -4.2
A16U A19U C103G | -4.18
A16U G84U G86U C93G U144C | -3.51
A16U U31A G83A C105U | -1.17
A16G A30U U90G G152U | ≤ -4.2
A16U A20C A91U G141U | ≤ -4.2
A16U U139G G140U | ≤ -4.2
A17G C35U G83A | -0.796
A17G C18A G84C C93U | -3.84
A16U C103G | -3.31
A17C C32G C54A C76G G80A C93A C96A U111A | ≤ -4.2
A17C A19U G58A A97G U102G A119G | -3.63
A17G A49U G83U | -3.31
A16U C32A C35G A47C G58C G68A G70U C96G G126C | ≤ -4.2
A17C U82A C85A C93U | ≤ -4.2
A17G A52G C85G | -2.03
A17C A20C C108G | ≤ -4.2
A16U C54G A97C C116G G124U A137C | ≤ -4.2
A16G U78A C93G | ≤ -4.2

Variant | polymerase ribozyme fitness (log ratio)
A16U G92U | -2.29
A17G C27G A66G A107G A115C | ≤ -4.2
A17G A37C A91G C99A A107G U139G G143U U148C | ≤ -4.2
A16G C27G U44A C79G | ≤ -4.2
A17G A21G C57U C96A A137U A138G | ≤ -4.2
A16U C85A | -2.74
A16U C85G | -3.36
A17C A19U | 0.475
A16G U45A C72U C93G U151A | ≤ -4.2
A16U U56A C96A | -3.23
A17C U44G G88A C95G C103U G141C | ≤ -4.2
A17G A47C C87A G88C A91U U111A | ≤ -4.2
A16U A19G U31A C38U G42C U44G G59U C96G | ≤ -4.2
A16U C18U U44G U82A C93U C99A A106G A142C | ≤ -4.2
A17C A39U G58A C95A G141C | -2.82
A17G A39C G68C C93G | ≤ -4.2
A17C A40U U53A C76G C93U U146G | ≤ -4.2
A17C G88A A91G U148A | -4.03
A17G A60G C85G A89U | -2.31
A16U A41G C51U G74C C95U C103U C118U G133A | ≤ -4.2
A16G C36U A49C G88A C93G A107U G140U G143C | ≤ -4.2
A16G G94A G143C | -3.22
A17G C18G U31G G68A C87U G133U | ≤ -4.2
A17C G68C C85G C125U G143C | ≤ -4.2

Variant | polymerase ribozyme fitness (log ratio)
A16G U134A | -3.15
A16G U134G | -3.44
A17C G92C | 0.012
A17C C36U A47G C54A C85A C118A U127G U134C U151A | ≤ -4.2
A16G C43U C79U C132U | ≤ -4.2
A16G C43G C57U G84A C85A A91C U127C | ≤ -4.2
A16G U148C | -2.77
A17C A19C A73G C96U C123U C125G | -3.23
A16U G25C A52C C96U | -4.11
A16U G94C | -2.55
A17C A20C U53G G84A | -2.28
A17G A20C A24C U44C A66U C103U U134G | ≤ -4.2
A16U A29C C35U A41C G86A A98U C114U G141U U145G | ≤ -4.2
A17C A23U U104C | ≤ -4.2
A16U G143C | -3.63
A17C C57U U82C | -0.0541
A17C U53G U55A A121G | -1.71
A16U U61A C95U | -3.06
A16U G83C C99A | -3.97
A16G C69U C85U C131G A142U | ≤ -4.2
A16G C27U | -2
A17G A49U G71C C79A A106U | ≤ -4.2
A16U C38U A91U C103A | ≤ -4.2
A17C G133A U144A A147C | -3.99

Variant | polymerase ribozyme fitness (log ratio)
A17G A52U G83A C95U | -3.91
A16U A17U A26U C27G A49U C54A A66U C85A C116G | -3.74
A17G A20U C57G G84U C93A C96G A119U G141A | ≤ -4.2
A16U C27U A29C A49G C95U C105G U146A | ≤ -4.2
A16G C35U | -1.36
A16U C27G A30U C35G G83A C103U | ≤ -4.2
A16G U33G G81A C87G G100A | ≤ -4.2
A16U A29G A30U U53A U55A G62C U77G C116U | ≤ -4.2
A16U G68A C87A G94C G141A | ≤ -4.2
A16U G58U | -2.34
A17C A40G G50C C57U C108U G133C | ≤ -4.2
A16U A23G U148A | ≤ -4.2
A17G A40U U55A U56A C103A A119G U134A | ≤ -4.2
A17C C38A U55G G86U C116G A122G | -2.93
A16G C57A G86C G124U | -3.24
A16U C57A | -1.96
A17G C18A C69G U101G C105U A120U A142U | -1.71
A16U A17C G50A U56A C87U G88A G117U | ≤ -4.2
A16U U33A G42A C93U G140A | ≤ -4.2
A16U U44G G48A C87U U102G C131U C132G | ≤ -4.2
A17G A21G C96G | 0.392
A17C C18G G58A C69G C85U | -2.39
A16U U31A A64U C85U A91G C131A | ≤ -4.2
A16U U55G C87U | -2.67

Variant | polymerase ribozyme fitness (log ratio)
A17G C36U C93G | -3.8
A16G A39C | -2.62
A17G A23G G48C A91U U104A | ≤ -4.2
A16G U55A G83A G117U | -1.7
A17C G62U C93G | -3.31
A17G A37U A47U C85U | -1.62
A16U U56G G84A U102A G141U | -3.81
A16U C54A G81A C85U C114U G136U G143U C149G | ≤ -4.2
A16G C149G | -3.97
A16U C35U G92U C116G | -3.21
A16G U31G A49U | ≤ -4.2
A16G C35G U53A C57U G84U C105G A150U | ≤ -4.2
A17C U31C G50C C51A | -0.997
A16U C129A | -3.81
A17C U55A G59A A60G C96A G143U | -3.41
A16U C116A | -0.257
A16G C43A U55A G80C G117U G133C | ≤ -4.2
A16G A49U C63U C72U G88C G141C | ≤ -4.2
A16U U53C A73G G94C A150C | ≤ -4.2
A17G A28U G71A A121G | ≤ -4.2
A16U G133C U146A | -3.79
A17G A39G U56A C85G A115G | -3.92
A16U A19U A39U U61A A113G G128A G141C | ≤ -4.2
A17C C18A C57A C95U C99G A113G G133A G152U | -4.06

Variant | polymerase ribozyme fitness (log ratio)
A16G C32G A41U G80C C99U A110U U127A G143A | ≤ -4.2
A16G G83U U139G | -1.17
A17C A28U U44C A52U G94U A97G A142G | ≤ -4.2
A16G C27U A28G C43U U53A C57A U82G C93U G143C | ≤ -4.2
A17C A26C C87U | -1.83
A17G A89G | -0.582
A16U A22G C57A U135A | -3.06
A16U G81A | -1.95
A16U A24U C27U A39U U55A C76A | ≤ -4.2
A16G U82A U145G | -1.4
A16G G81A G83A C93U G128C U134G | ≤ -4.2
A16U C27G A28U U31C G74U U82A | ≤ -4.2
A16U U55G C85G C103U A121U | -4.13
A16G G48U G133U | -3.99
A17G A113C | -2.83
A17C G25A G62U G117U | -2.71
A17C G74C C87U G92C C105G G136U | ≤ -4.2
A17G A147U | 1.55
A16U G58U C69U U78G G80C C96A G141U | ≤ -4.2
A16U A19U | -2.39
A17C G59C U102G C123A | -2.05
A17G C35U C36U C95U | ≤ -4.2
A16G G83U G92A C96U | ≤ -4.2
A16U A29U U45G U61G C93A | ≤ -4.2

Variant | polymerase ribozyme fitness (log ratio)
A16U G70C G81U A89G | ≤ -4.2
A17C A21G A40U G86U A122U | -1.48
A17C A21U G25U G84A | -2.95
A17G A21C U44A A91C C108U | ≤ -4.2
A16U G74A G84U U90C C118U A121U | ≤ -4.2
A17G A30G C36A C99A | ≤ -4.2
A17C C99A | -0.000978
A16U C18A A40G G74A G80C G83U G86A A97U | ≤ -4.2
A16U A47U U55A C87U | -2.97
A16U C79G | ≤ -4.2
A16G G42A A52G C95U C96A C99G | ≤ -4.2
A16G G50A A142C | -3.93
A16U A60C U61A A66C | ≤ -4.2
A16U U56A G62A U82G C85U A142G | -4.16
A16U G124U | -2.37
A17C A37C A52U G83U | -3.08
A17G A21U C51U U53A C79U G94A A115G | ≤ -4.2
A17G A20C A30G G46A G59U G67C G68U G70U C96G | ≤ -4.2
A17G A49C C87G C123G G141A | ≤ -4.2
A17C C36U G68C G86A U139A | ≤ -4.2
A17G A22G U82C C99A | -2.88
A17G A19U U53A U56G A60U C69G U111G A142G | ≤ -4.2
A17C A37C C93G | -2.89
